# US10039841B2, “Gene therapy vector system and prodrug genes” (The Industry & Academic Cooperation in Chungnam National …, priority 2016, dated 2018)
# Tested on: U-87MG cells
# Test: Investigation of drug sensitivity against GCV and 5-FC (cell death of serially infected cells)
# Assay type: cell-based
# Protocol: The drug sensitivity against ganciclovir (GCV) and 5-fluorocytosine (5-FC) of the virus spRRVe-P1-yCD/sRRVgp-P1-TK produced in Example <3-1> was investigated.
# Overall, 293T cells were co-transfected with spRRVe-P1-yCD/sRRVgp-P1-TK by using PLUS reagent (Invitrogen) and lipofectamine (Invitrogen). 2 days later, the supernatant was obtained. The U-87MG cells sub-cultured on the previous day in a 6-well plate at the density of 1.5×10^3 cells/well were added with 8 μl/ml of polybrene, followed by infection with the virus for 8 hours. 5 days after the infection (post-infection 5 d), the supernatant was obtained. The U-87MG cells sub-cultured on the previous day in a 6-well plate at the density of 1.5×10^3 cells/well were infected with the supernatant (p1). The infection was continued serially until p4 phase. The cells of each phase were treated with trypsin-EDTA to prepare single cells. The prepared single cells were distributed in a 12-well plate at the density of 1.5×10^3 cells/well. From the next day of the sub-culture, the cells were treated with […] of GCV and 1 mM 5-FC for 5 days or 8 days, followed by investigation of cell death.
# The drug sensitivity of the virus produced in Example <6-2> against GCV and 5-FC was investigated by the same manner as described in Example <3-5> except that the virus produced in Example <6-2> was co-transfected.
# (§1) The drug sensitivity of the virus produced in Example <7-2> against GCV and 5-FC was investigated by the same manner as described in Example <3-5> except that the virus produced in Example <7-2> was co-transfected to infect stepwise from p1 to p9 and cell death was observed after treating GCV and 5-FC for 9 or 12 days, respectively.
# as §1, with “<8-2>” for “<7-2>”, “p11” for “p9”, “5” for “9”, “7 days.” for “12 days, respectively.”
# as §1, with “<10-2>” for “<7-2>”, “p5” for “p9”, “6” for “9”, “8” for “12”
# as §1, with “Example <11-2>” for “Example <7-2>”, “for 8” for “for 9”, “days, respetively.” for “days, respectively.”
# [1] = Example 8-3, combined with sRRVgp-P2-TK, p1 to p11, treated 5 or 7 days
Molecule,drug sensitivity against 5-FC [1],other results
"yCD: yeast cytosine deaminase gene (SEQ. ID. NO: 16) (nucleic acid, listed as Saccharomyces cerevisiae) DNA: ATGGTGACAGGGGGAATGGCAAGCAAGTGGGATCAGAAGGGTATGGACATTGCCTATGAGGAGGCGGCCTTAGGTTACAAAGAGGGTGGTGTTCCTATTGGCGGATGTCTTATCAATAACAAAGACGGAAGTGTTCTCGGTCGTGGTCACAACATGAGATTTCAAAAGGGATCCGCCACACTACATGGTGAGATCTCCACTTTGGAAAACTGTGGGAGATTAGAGGGCAAAGTGTACAAAGATACCACTTTGTATACGACGCTGTCTCCATGCGACATGTGTACAGGTGCCATCATCATGTATGGTATTCCACGCTGTGTTGTCGGTGAGAACGTTAATTTCAAAAGTAAGGGCGAGAAATATTTACAAACTAGAGGTCACGAGGTTGTTGTTGTTGACGATGAGA",,"drug sensitivity against 5-FC (Example 3-5, 1 mM 5-FC for 5 days or 8 days, post-infection 5 d to p4): low drug sensitivity"
"CD7: yeast CD gene optimized by human codon (SEQ. ID. NO: 22) (nucleic acid, CD7 gene) DNA: ATGGTAACTGGTGGCATGGCCTCAAAGTGGGATCAGAAAGGAATGGACATCGCTTACGAGGAGGCCGCACTGGGCTATAAGGAGGGCGGCGTCCCTATAGGCGGTTGCCTGATTAACAATAAAGACGGCTCAGTGCTGGGAAGGGGGCACAACATGAGATTTCAGAAAGGCAGCGCAACTCTGCACGGCGAAATCTCCACTCTGGAGAACTGCGGGCGGCTGGAGGGAAAGGTTTATAAAGATACTACCTTGTATACAACTCTGTCCCCCTGCGATATGTGCACCGGCGCCATCATAATGTACGGAATACCCAGGTGCGTGGTGGGAGAGAACGTGAATTTTAAGTCAAAAGGTGAGAAGTACCTGCAGACTCGCGGCCATGAGGTGGTTGTTGTTGACGATGAAAGGTGCAAGAAGATTATGAAGCAGTTCATTGATGAAAGACCCCAGGACTGGTTTGAGGATATCGGAGAGTAG","excellent drug sensitivity, compared to yCD gene",
"CD6: yeast CD gene optimized by human codon (SEQ. ID. NO: 21) (nucleic acid, CD6 gene) DNA: ATGGTTACTGGAGGGATGGCCAGTAAATGGGACCAGAAGGGTATGGATATTGCATACGAGGAGGCCGCTTTGGGATACAAGGAGGGGGGTGTCCCTATAGGCGGTTGCCTGATCAATAATAAAGACGGCTCTGTCTTGGGAAGAGGACACAATATGCGCTTTCAGAAGGGAAGCGCCACCCTGCATGGAGAGATCTCTACCCTCGAAAATTGCGGAAGGCTCGAAGGCAAAGTTTACAAAGATACCACCCTCTACACAACGCTGTCCCCCTGTGATATGTGCACCGGTGCCATTATCATGTATGGCATCCCACGCTGCGTTGTAGGAGAGAATGTAAACTTCAAATCCAAGGGAGAGAAGTATCTCCAGACCCGAGGGCACGAAGTTGTGGTGGTGGACGATGAAAGGTGTAAGAAGATCATGAAGCAGTTCATAGATGAGCGGCCTCAGGACTGGTTCGAGGATATTGGCGAATGA","excellent drug sensitivity, compared to yCD gene","drug sensitivity against GCV and 5-FC (Example 10-3, spRRVe-P2-CDs (CD6, CD10-CD16)/sRRVgp-P2-TK, p1 to p5, treated 6 or 8 days): most excellent drug sensitivity"
"CD4: CD gene where 32 sites showing recombination were all mutated (SEQ. ID. NO: 19) (nucleic acid, CD4 gene) DNA: ATGGTGACAGGGGGAATGGCAAGCAAGTGGGATCAGAAGGGTATGGACATTGCCTATGAGGAGGCGGCCTTAGGTTACAAAGAGGGTGGTGTTCCTATTGGCGGATGTCTTATCAATAACAAAGACGGAAGTGTTCTCGGTCGTGGTCACAACATGAGATTTCAAAAGGGATCCGCCACACTACATGGTGAGATCTCCACTTTGGAGAACTGCGGCAGGCTGGAAGGCAAGGTGTACAAAGATACCACTCTGTACACCACCCTGTCTCCATGCGACATGTGTACAGGTGCCATCATCATGTATGGTATTCCACGCTGTGTTGTCGGTGAGAACGTTAATTTCAAAAGTAAGGGCGAGAAATACTTGCAAACCAGGGGCCACGAGGTGGTGGTTGTTGACGATGAGAGGTGTAAAAAGATCATGAAACAATTTATCGATGAAAGACCTCAGGACTGGTTCGAGGACATCGGCGAGTAA",,"drug sensitivity against 5-FC (Example 6-3, spRRVe-P1-CDs/sRRVgp-P1-TK, p1-p4): weak drug sensitivity"
"CD8: yeast CD gene optimized by human codon (SEQ. ID. NO: 23) (nucleic acid, CD8 gene) DNA: ATGGTTACTGGGGGAATGGCATCTAAGTGGGATCAGAAAGGTATGGACATCGCTTATGAAGAGGCTGCTCTCGGCTACAAAGAGGGTGGAGTGCCTATCGGAGGGTGCCTGATCAACAACAAGGACGGCAGTGTGCTGGGGAGGGGCCACAATATGAGGTTCCAAAAAGGCTCCGCCACTCTCCACGGGGAAATTAGTACCCTCGAGAATTGCGGACGATTGGAAGGGAAGGTGTACAAGGATACAACACTGTACACCACCCTGTCACCCTGTGATATGTGCACAGGCGCCATTATCATGTACGGAATCCCTAGATGTGTCGTGGGGGAGAATGTAAACTTCAAAAGTAAGGGGGAGAAATATCTCCAGACCCGGGGGCACGAAGTCGTCGTTGTGGACGATGAACGGTGTAAGAAGATCATGAAGCAGTTTATCGATGAGAGGCCCCAGGACTGGTTCGAAGACATCGGGGAATAA","excellent drug sensitivity, compared to yCD gene",
